Measured values taken from patent US20130252987A1, “METHOD OF REGULATING PLASMA LIPOPROTEINS” (MCMASTER UNIVERSITY, priority 2010, published 2013).

Columns and labels:
[1] = test system: HepG2 cells; assay: real-time quantitative PCR of mRNA expression; assay type: cell-based, human
Description: Total RNA was isolated from cell lysates (RNeasy Mini Kit, Qiagen, Germantown, Md.) and used as a template for cDNA synthesis (QuantiTech Reverse Transcription Kit, Qiagen, Germantown, Md.). Quantitative real-time PCR was performed using an Applied Biosystems 7300 Real Time PCR system (Carlsbad, Calif.) according to the manufacturer's instructions and with the SYBR green master kit (Qiagen, Germantown, Md.). Primers for the real-time PCR internal control gene cyclophilin A (sense, 5′-[…]-3′ (SEQ ID NO:3); antisense, 5′-[…]-3′ (SEQ ID NO:4)) were synthesized (IDT, Coralville, Iowa). Primers for succinate degydrogenase (SDH) (another real-time PCR internal control gene), apoB, microsomal triglyceride transfer protein (MTP), Srebp1, Srebp2, acetyl-coA carboxylase (ACC), HMG-coA reductase, HMG-coA synthase, squalene synthase (SS), the LDL receptor, PCSK9, fatty acid synthase (FAS), […] (SCD), DGAT1 and DGAT2 were purchased (proprietary sequences not available) (Qiagen, Germantown, Md.). The values reported for each mRNA were corrected to the cyclophilin A and SDH mRNA values.
Total RNA was isolated from cell lysates (RNeasy Mini Kit, Qiagen, MD) and used as a template for cDNA synthesis (QuantiTech Reverse Transcription Kit, Qiagen, MD). Quantitative real-time PCR was performed using an Applied Biosystems 7300 Real-Time PCR system (Carlsbad, Calif.) according to the manufacturer's instructions and with the SYBR green kit (Qiagen, MD). Primers for the real-time PCR internal control gene cyclophilin A, as identified in Example 1, were synthesized (IDT, IA). Primers for succinate dehydrogenase (SDH) (another real-time PCR internal control gene), SREBP2, HMG-CoA reductase, the LDL receptor and PCSK9 were purchased (proprietary sequences not available) (Qiagen, MD). The values reported for each mRNA were corrected to the cyclophilin A and SDH mRNA values.

[2] = test system: HepG2 cells; assay: Oil-Red-O staining of neutral lipid; assay type: cell-based, human; conditions: 50 ng/mL, 24 hours, versus untreated
Description: Cells were stained with Oil-Red-0 to examine the amount of neutral lipid accumulation in the cells as described by Ferre et al. (Am. J. Physiol Gastrointest. Liver Physiol. 296:G553-G562). Briefly, dishes were washed with cold phosphate-buffered saline and fixed in 10% neutral formalin. After 2 changes of propylene glycol, Oil-Red-0 was added with agitation for 7 minutes, followed by washing in 85% propylene glycol. The dishes were then rinsed in distilled water and counterstained with hematoxylin. For each dish, 3 images were photographed, and a representative image is shown.
To determine if the deleterious effects of human resistin extend not only to increased secretion of apoB-containing lipoproteins by human hepatocytes, but also to increased hepatocyte lipid content, as the two processes frequently occur together in such conditions as obesity, insulin resistance and type 2 diabetes mellitus. Oil-Red-O/hematoxylin staining of HepG2 cells either untreated, treated with 100 μM oleate for 24 hours as a positive control, or treated with 50 ng/mL human resistin for 24 hours was performed. […] The increased cell neutral lipid content with resistin treatment was similar in magnitude to that observed with 100 μM oleate treatment.

[3] = test system: human hepatocytes; assay: cellular apoB100 protein expression in primary human hepatocytes; assay type: cell-based; conditions: 50 ng/mL, 24 hours
Description: Primary Cells: Fresh wild-type rat and mouse primary heptaocytes were supplied by CellzDirect (Invitrogen, NC) in a 6-well collagen coated plate. Upon arrival, the storage media was removed and incubation media (Williams E Medium, phenol red free, with incubation supplement pack, Gibco, NC) was added according to manufactures' instructions. The cells were incubated at 37° C. with 5% CO2 for 16 hours prior to human resistin (50 ng/mL) treatment for 24 hours. Cryopreserved plateable human hepatocytes, metabolism qualified from multiple normal human donors, were supplied by CellzDirect (Invitrogen, NC). Upon arrival, the cells (4-8 million in 1 mL), according to the manufacturer's instruction, were added to 48 mL warmed thawing medium (CHRM® Medium, Invitrogen, NC) and centrifuged at 100×g for 10 min at room temperature. The pellet was re-suspended in 4 mL plating medium (Williams E Medium, phenol red free, with maintenance supplement pack and 10% FBS, Gibco, NC). The cells were stained by Trypan Blue (Sigma, Canada) and counted by a haemocytometer, followed by seeding 1×10^6 cells/well in a 6-well collagen coated plate (CellzDirect, Invitrogen, NC). The cells were incubated at 37° C. with 5% CO2 for 4 hours to allow the cells to adhere. The plating media was replaced and cell incubated for 16 hours prior to human resistin treatment for 24 hours. […]

B1: human resistin: recombinant lyophilized purified human resistin (Calbiochem); cysteine-rich cytokine, single 12 kDa band (protein)
chain: KTLCSMEEAINERIQEVAGSLIFRAISSIGLECQSVTSRGDLATCPRGFAVTGCTCGSACGSWDVRAETTCHCQCAGMDWTGARCCRVQP
apoB mRNA expression ([1]; 50 ng/mL, 24 hours): significant increase | expression of DGAT1 ([1]; 50 ng/mL, 24 hours): increased to smaller but significant extents | expression of SCD ([1]; 50 ng/mL, 24 hours): increased to smaller but significant extents | expression of the LDL RECEPTOR gene ([1]; 50 ng/mL, 24 hours): increased | expression of the PCSK9 gene ([1]; 50 ng/mL, 24 hours): increased | increase in the expression of ACC ([1]; 50 ng/mL, 24 hours): 3 fold | increase in the expression of HMG-CoA REDUCTASE ([1]; 50 ng/mL, 24 hours): 2 fold | increase in the expression of HMG-CoA SYNTHASE ([1]; 50 ng/mL, 24 hours): 2 fold | increase in the expression of SQUALENE SYNTHASE ([1]; 50 ng/mL, 24 hours): 2 fold | mRNA expression of SREBP1 ([1]; 50 ng/mL, 24 hours): significantly increased | mRNA expression of SREBP2 ([1]; 50 ng/mL, 24 hours): significantly increased | apoB mRNA expression ([1]; 100 ng/mL dose, after dose-response increase from 0 to 50 ng/mL): decreased | hepatocyte neutral lipid content [2]: clear increase | increase in cellular apoB protein expression versus untreated control cells [3]: 40-50%
